According to article PMC4014986:
Like-named read-outs stand apart in the source and are kept apart here.

How the values were obtained:
[1] = target: Actin filaments (F-actin) from rabbit skeletal muscle (rabbit) (UniProt P68135)
[2] = target: Actin filaments (F-actin) from rabbit skeletal muscle (rabbit) (UniProt P68135); remark: listed apart in the source
[3] = target: Actin filaments (F-actin) from rabbit skeletal muscle (rabbit) (UniProt P68135); remark: listed apart in the source

Sequence of Myosin 5c subfragment 1 (Myo5c-S1, 1-785 amino acids) (Q9NQX4 1-785): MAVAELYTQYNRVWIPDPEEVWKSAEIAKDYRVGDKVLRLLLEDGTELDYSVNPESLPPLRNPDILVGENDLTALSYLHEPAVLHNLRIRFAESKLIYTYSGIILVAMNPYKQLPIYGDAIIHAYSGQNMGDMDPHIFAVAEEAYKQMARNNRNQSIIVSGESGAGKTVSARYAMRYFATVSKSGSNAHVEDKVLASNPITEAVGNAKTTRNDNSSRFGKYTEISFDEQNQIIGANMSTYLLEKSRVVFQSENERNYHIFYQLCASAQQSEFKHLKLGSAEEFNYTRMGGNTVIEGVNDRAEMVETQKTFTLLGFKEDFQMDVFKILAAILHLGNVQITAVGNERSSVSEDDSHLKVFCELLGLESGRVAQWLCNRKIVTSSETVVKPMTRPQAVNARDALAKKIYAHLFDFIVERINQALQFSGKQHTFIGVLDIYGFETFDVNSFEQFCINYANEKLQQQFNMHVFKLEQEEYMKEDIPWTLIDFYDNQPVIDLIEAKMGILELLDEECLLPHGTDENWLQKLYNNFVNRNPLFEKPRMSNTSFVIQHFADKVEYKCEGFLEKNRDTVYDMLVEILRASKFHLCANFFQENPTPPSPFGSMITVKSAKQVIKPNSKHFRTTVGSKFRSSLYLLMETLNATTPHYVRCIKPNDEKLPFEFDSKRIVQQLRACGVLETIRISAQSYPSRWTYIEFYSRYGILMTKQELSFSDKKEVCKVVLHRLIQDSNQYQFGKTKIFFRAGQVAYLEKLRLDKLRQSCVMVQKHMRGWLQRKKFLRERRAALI

K (ATPase) of the steady-state actin-activated ATPase (NADH-coupled assay) [1]: 26 µM
half-maximum value (Kact) of the phosphate dissociation rate against F-actin concentration (MDCC-PBP, double-mixing stopped flow) [2]: 14.6 µM
K (ATPase) of the steady-state actin-activated ATPase (NADH-coupled assay) [3]: 35 µM
Substance: Myosin 5c subfragment 1 (Myo5c-S1, 1-785 amino acids) (from UniProt Q9NQX4 1-785) (domain or fragment)
